Test results taken from paper PMC11969024 (2025).

B1: peptide HD2 (from tick evasin EVA4) / CXCL11 (biotinylated, synthetic) (parent complex)
chain 1: EEDDYTAYAPLTCYFT
chain 2: FPMFKRGRCLCIGPGVKAVKVADIEKASIMYPSNNCDKIEVIITLKENKGQRCLNPKSKQARLIIKKVERKNF
B2: peptide HD2 (from tick evasin EVA4) / CXCL14 (biotinylated, synthetic) (parent complex)
chain 1: EEDDYTAYAPLTCYFT
chain 2: SKCKCSRKGPKIRYSDVKKLEMKPKYPHCEEKMVIITTKSVSRYRGQEHCLHPKLQSTKRFIKWYNAWNEKRRVYEE

Variants of: B1

Variant	enrichment
chain 1 A9F	-0.826 log2 (difference from the parental peptide)
chain 1 A9Y	-4.48 log2 (difference from the parental peptide)
chain 1 A9P	0.549 log2 (difference from the parental peptide)
chain 1 A9G	-1.08 log2 (difference from the parental peptide)
chain 1 A9S	-0.211 log2 (difference from the parental peptide)
chain 1 A7Y	2.5 log2 (difference from the parental peptide)
chain 1 A7I	1.35 log2 (difference from the parental peptide)
chain 1 D3G	-4.59 log2 (difference from the parental peptide)
chain 1 T12N	-0.502 log2 (difference from the parental peptide)
chain 1 T12C	-5.77 log2 (difference from the parental peptide)
chain 1 Y5H	-0.00324 log2 (difference from the parental peptide)
chain 1 E2A	-2.47 log2 (difference from the parental peptide)
chain 1 E2N	-4.96 log2 (difference from the parental peptide)
chain 1 E2W	1.67 log2 (difference from the parental peptide)
chain 1 Y8L	-0.881 log2 (difference from the parental peptide)
chain 1 Y14L	-3.92 log2 (difference from the parental peptide)
chain 1 Y14W	-6.01 log2 (difference from the parental peptide)
chain 1 Y14A	-7.18 log2 (difference from the parental peptide)
chain 1 F15D	-1.93 log2 (difference from the parental peptide)
chain 1 F15P	-3.5 log2 (difference from the parental peptide)
chain 1 F15W	-6.32 log2 (difference from the parental peptide)
chain 1 F15K	-4.14 log2 (difference from the parental peptide)
chain 1 F15I	-3.39 log2 (difference from the parental peptide)

Variant	enrichment
chain 1 T16A	-0.756 log2 (difference from the parental peptide)
chain 1 T16W	0.43 log2 (difference from the parental peptide)
chain 1 T16N	-3.84 log2 (difference from the parental peptide)
chain 1 T16K	-4.41 log2 (difference from the parental peptide)
chain 1 E1H	-5.11 log2 (difference from the parental peptide)
chain 1 E1T	-1.21 log2 (difference from the parental peptide)
chain 1 E1G	-4.38 log2 (difference from the parental peptide)
chain 1 E1F	-0.271 log2 (difference from the parental peptide)
chain 1 E1Q	2.79 log2 (difference from the parental peptide)
chain 1 E1M	0.144 log2 (difference from the parental peptide)
chain 1 E1S	-1.7 log2 (difference from the parental peptide)
chain 1 E1W	1.25 log2 (difference from the parental peptide)
chain 1 T6E	3.52 log2 (difference from the parental peptide)
chain 1 T6L	3.05 log2 (difference from the parental peptide)
chain 1 T6V	-0.999 log2 (difference from the parental peptide)
chain 1 L11F	2.94 log2 (difference from the parental peptide)
chain 1 C13T	-3.56 log2 (difference from the parental peptide)
chain 1 C13S	-1.17 log2 (difference from the parental peptide)
chain 1 C13H	-5.78 log2 (difference from the parental peptide)
chain 1 P10A	-0.641 log2 (difference from the parental peptide)
chain 1 P10T	-0.0022 log2 (difference from the parental peptide)
chain 1 D4Q	-3.62 log2 (difference from the parental peptide)
chain 1 D4Y	-4.43 log2 (difference from the parental peptide)

Variants of: B2

Variant	enrichment
chain 1 P10V	0.331 log2 (difference from the parental peptide)
chain 1 P10M	2.33 log2 (difference from the parental peptide)
chain 1 P10L	0.0771 log2 (difference from the parental peptide)
chain 1 P10Q	-4.65 log2 (difference from the parental peptide)
chain 1 P10F	-2.31 log2 (difference from the parental peptide)
chain 1 P10D	-1.54 log2 (difference from the parental peptide)
chain 1 P10H	0.862 log2 (difference from the parental peptide)
chain 1 P10E	3.27 log2 (difference from the parental peptide)
chain 1 T16S	-5.85 log2 (difference from the parental peptide)
chain 1 T16G	2.47 log2 (difference from the parental peptide)
chain 1 T16H	3.56 log2 (difference from the parental peptide)
chain 1 T16W	2.14 log2 (difference from the parental peptide)
chain 1 T16C	1.19 log2 (difference from the parental peptide)
chain 1 T16L	1.24 log2 (difference from the parental peptide)
chain 1 T16I	0.982 log2 (difference from the parental peptide)
chain 1 E1V	-5.63 log2 (difference from the parental peptide)
chain 1 E1T	0.267 log2 (difference from the parental peptide)
chain 1 E1Q	-2.86 log2 (difference from the parental peptide)
chain 1 E1S	-6.03 log2 (difference from the parental peptide)
chain 1 E2M	-6.07 log2 (difference from the parental peptide)
chain 1 E2S	0.196 log2 (difference from the parental peptide)
chain 1 E2D	0.377 log2 (difference from the parental peptide)
chain 1 E2V	-0.0348 log2 (difference from the parental peptide)
chain 1 E2N	0.243 log2 (difference from the parental peptide)
chain 1 A7N	2.93 log2 (difference from the parental peptide)
chain 1 A7Y	2.89 log2 (difference from the parental peptide)

Variant	enrichment
chain 1 A7T	-5.45 log2 (difference from the parental peptide)
chain 1 A7G	1.97 log2 (difference from the parental peptide)
chain 1 A7R	1.24 log2 (difference from the parental peptide)
chain 1 A7H	1.29 log2 (difference from the parental peptide)
chain 1 A7S	1 log2 (difference from the parental peptide)
chain 1 D4F	-0.493 log2 (difference from the parental peptide)
chain 1 D4P	1.82 log2 (difference from the parental peptide)
chain 1 D4I	0.635 log2 (difference from the parental peptide)
chain 1 D4M	-6.89 log2 (difference from the parental peptide)
chain 1 Y14A	-0.328 log2 (difference from the parental peptide)
chain 1 Y14E	-0.269 log2 (difference from the parental peptide)
chain 1 Y14C	-4.99 log2 (difference from the parental peptide)
chain 1 Y14V	-3.62 log2 (difference from the parental peptide)
chain 1 Y14H	2.79 log2 (difference from the parental peptide)
chain 1 Y8L	0.358 log2 (difference from the parental peptide)
chain 1 Y8N	-4.8 log2 (difference from the parental peptide)
chain 1 Y8M	1.74 log2 (difference from the parental peptide)
chain 1 Y8P	-6.13 log2 (difference from the parental peptide)
chain 1 Y8I	-6.06 log2 (difference from the parental peptide)
chain 1 Y8W	0.649 log2 (difference from the parental peptide)
chain 1 A9V	-2.17 log2 (difference from the parental peptide)
chain 1 A9N	4.16 log2 (difference from the parental peptide)
chain 1 A9H	-6.47 log2 (difference from the parental peptide)
chain 1 A9G	-5.95 log2 (difference from the parental peptide)
chain 1 A9K	-4.89 log2 (difference from the parental peptide)
chain 1 A9E	-4.09 log2 (difference from the parental peptide)

Variant	enrichment
chain 1 A9W	1.99 log2 (difference from the parental peptide)
chain 1 A9T	2.11 log2 (difference from the parental peptide)
chain 1 A9F	0.278 log2 (difference from the parental peptide)
chain 1 A9Q	3.77 log2 (difference from the parental peptide)
chain 1 T6E	2.79 log2 (difference from the parental peptide)
chain 1 T6K	-5.43 log2 (difference from the parental peptide)
chain 1 T6Y	3.46 log2 (difference from the parental peptide)
chain 1 T6M	1.47 log2 (difference from the parental peptide)
chain 1 T6P	1.85 log2 (difference from the parental peptide)
chain 1 T6Q	0.84 log2 (difference from the parental peptide)
chain 1 T6S	-0.144 log2 (difference from the parental peptide)
chain 1 T6N	0.149 log2 (difference from the parental peptide)
chain 1 Y5F	-5.86 log2 (difference from the parental peptide)
chain 1 Y5M	-5.9 log2 (difference from the parental peptide)
chain 1 Y5L	-2.83 log2 (difference from the parental peptide)
chain 1 Y5W	-1.34 log2 (difference from the parental peptide)
chain 1 T12M	-4.31 log2 (difference from the parental peptide)
chain 1 T12N	-6.02 log2 (difference from the parental peptide)
chain 1 T12D	-6.91 log2 (difference from the parental peptide)
chain 1 T12H	-1.2 log2 (difference from the parental peptide)
chain 1 T12G	-8.56 log2 (difference from the parental peptide)
chain 1 T12A	-6.47 log2 (difference from the parental peptide)
chain 1 T12R	-7.34 log2 (difference from the parental peptide)
chain 1 T12E	-5.22 log2 (difference from the parental peptide)
chain 1 T12I	3.47 log2 (difference from the parental peptide)
chain 1 L11R	-4.9 log2 (difference from the parental peptide)

Variant	enrichment
chain 1 L11V	-0.136 log2 (difference from the parental peptide)
chain 1 L11A	0.339 log2 (difference from the parental peptide)
chain 1 L11C	0.549 log2 (difference from the parental peptide)
chain 1 D3I	-8.12 log2 (difference from the parental peptide)
chain 1 D3T	-5.87 log2 (difference from the parental peptide)
chain 1 D3G	1.82 log2 (difference from the parental peptide)
chain 1 D3F	-3.03 log2 (difference from the parental peptide)
chain 1 D3Y	0.926 log2 (difference from the parental peptide)
chain 1 D3N	1.21 log2 (difference from the parental peptide)
chain 1 C13G	-8.69 log2 (difference from the parental peptide)
chain 1 C13P	-6.86 log2 (difference from the parental peptide)
chain 1 C13T	-5.9 log2 (difference from the parental peptide)
chain 1 C13N	-4.88 log2 (difference from the parental peptide)
chain 1 C13S	-3.41 log2 (difference from the parental peptide)
chain 1 F15W	-6.44 log2 (difference from the parental peptide)
chain 1 F15V	0.451 log2 (difference from the parental peptide)
chain 1 F15Q	1.93 log2 (difference from the parental peptide)
chain 1 F15Y	3.35 log2 (difference from the parental peptide)
chain 1 F15S	-6.23 log2 (difference from the parental peptide)
chain 1 F15M	0.3 log2 (difference from the parental peptide)
chain 1 F15G	-8.03 log2 (difference from the parental peptide)
chain 1 F15N	-3.99 log2 (difference from the parental peptide)
chain 1 F15H	-4.57 log2 (difference from the parental peptide)
chain 1 F15C	1.14 log2 (difference from the parental peptide)
chain 1 F15L	-4.99 log2 (difference from the parental peptide)
chain 1 F15A	-5.37 log2 (difference from the parental peptide)
